Test results: US20260001928A1 (CORTERIA PHARMACEUTICALS, priority 2022, published 2026)
*1 amine or outer side, *2 acyl side, *3 side chain or, on linkers, in order; H or OH if unused. Where no end group is shown, it is not given here. Side-chain parts run from the residue outwards. [ ]: non-standard residue; d: D form. The star is where a group is joined. C18 diacid = O=C(O)CCCCCCCCCCCCCCCCC(=O)*; γGlu = O=C(O)[C@H](CCC(=O)[*:2])N[*:1]; C12 diacid = O=C(O)CCCCCCCCCCC(=O)*; NMeI = CC[C@H](C)[C@H](NC)C(=O)O; Api = NC1(C(=O)O)CCNCC1; Pentanoyl = CCCCC(=O)*; Aib = CC(C)(N)C(=O)O

T1: CRF1R receptor (UniProt P34998 24-415, limits assumed)
T1 sequence (looked up): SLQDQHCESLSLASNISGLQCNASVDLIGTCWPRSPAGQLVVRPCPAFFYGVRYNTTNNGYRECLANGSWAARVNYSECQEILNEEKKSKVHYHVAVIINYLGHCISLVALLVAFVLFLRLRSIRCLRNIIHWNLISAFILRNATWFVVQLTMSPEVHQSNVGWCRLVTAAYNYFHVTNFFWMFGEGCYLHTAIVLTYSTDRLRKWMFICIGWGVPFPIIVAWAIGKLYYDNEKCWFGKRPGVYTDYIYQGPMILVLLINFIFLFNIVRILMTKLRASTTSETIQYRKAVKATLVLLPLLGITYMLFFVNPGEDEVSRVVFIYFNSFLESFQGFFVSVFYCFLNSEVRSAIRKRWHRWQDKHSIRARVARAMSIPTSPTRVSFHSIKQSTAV


Experiments:
[1] = target: human corticotropin-releasing factor 2a (CRF2a receptor) (human), Q13324; experiment: cell-based or functional assay
CRF1R receptor = target: T1, CRF1R receptor; experiment: cell-based or functional assay

human corticotropin-releasing factor 2a (CRF2a receptor) (human), Q13324, sequence (Q13324 20-411): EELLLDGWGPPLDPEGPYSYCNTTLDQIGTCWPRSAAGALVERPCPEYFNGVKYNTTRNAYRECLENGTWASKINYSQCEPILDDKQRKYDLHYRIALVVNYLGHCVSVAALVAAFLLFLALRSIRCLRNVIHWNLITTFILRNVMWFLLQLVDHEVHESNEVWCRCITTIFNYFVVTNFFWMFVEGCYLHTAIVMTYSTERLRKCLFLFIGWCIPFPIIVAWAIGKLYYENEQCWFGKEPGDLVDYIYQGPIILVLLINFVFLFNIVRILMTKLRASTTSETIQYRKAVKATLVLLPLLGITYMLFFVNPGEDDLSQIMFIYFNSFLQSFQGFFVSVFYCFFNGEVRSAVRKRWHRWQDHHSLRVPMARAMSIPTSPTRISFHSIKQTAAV

EC50 [nM] (cAMP) [1] | Emax (% I) (CRF1R receptor) | EC50 (CRF1R receptor) | Binder
0.79 nM | 2% | – | [NMeI]VLSLD[dV]PIKLK([γGlu-C12 diacid])KILLEQEKQKKQREQAETN[Aib]QILAQV-NH2 (N-terminus assumed; SMILES CC[C@H](C)[C@H](NC)C(=O)N[C@H](C(=O)N[C@@H](CC(C)C)C(=O)N[C@@H](CO)C(=O)N[C@@H](CC(C)C)C(=O)N[C@@H](CC(=O)O)C(=O)N[C@@H](C(=O)N1CCC[C@H]1C(=O)N[C@H](C(=O)N[C@@H](CCCCN)C(=O)N[C@@H](CC(C)C)C(=O)N[C@@H](CCCCNC(=O)CC[C@H](NC(=O)CCCCCCCCCCC(=O)O)C(=O)O)C(=O)N[C@@H](CCCCN)C(=O)N[C@H](C(=O)N[C@@H](CC(C)C)C(=O)N[C@@H](CC(C)C)C(=O)N[C@@H](CCC(=O)O)C(=O)N[C@@H](CCC(N)=O)C(=O)N[C@@H](CCC(=O)O)C(=O)N[C@@H](CCCCN)C(=O)N[C@@H](CCC(N)=O)C(=O)N[C@@H](CCCCN)C(=O)N[C@@H](CCCCN)C(=O)N[C@@H](CCC(N)=O)C(=O)N[C@@H](CCCNC(=N)N)C(=O)N[C@@H](CCC(=O)O)C(=O)N[C@@H](CCC(N)=O)C(=O)N[C@@H](C)C(=O)N[C@@H](CCC(=O)O)C(=O)N[C@H](C(=O)N[C@@H](CC(N)=O)C(=O)NC(C)(C)C(=O)N[C@@H](CCC(N)=O)C(=O)N[C@H](C(=O)N[C@@H](CC(C)C)C(=O)N[C@@H](C)C(=O)N[C@@H](CCC(N)=O)C(=O)N[C@H](C(N)=O)C(C)C)[C@@H](C)CC)[C@@H](C)O)[C@@H](C)CC)[C@@H](C)CC)C(C)C)C(C)C) [SEQ ID NO 186]
3.54 nM | 2% | – | Pentanoyl-VLSLD[dV]PIKLK([γGlu-C12 diacid])KILLEQEKQKKQREQAETN[Aib]QILAQV-NH2 (SMILES CCCCC(=O)N[C@H](C(=O)N[C@@H](CC(C)C)C(=O)N[C@@H](CO)C(=O)N[C@@H](CC(C)C)C(=O)N[C@@H](CC(=O)O)C(=O)N[C@@H](C(=O)N1CCC[C@H]1C(=O)N[C@H](C(=O)N[C@@H](CCCCN)C(=O)N[C@@H](CC(C)C)C(=O)N[C@@H](CCCCNC(=O)CC[C@H](NC(=O)CCCCCCCCCCC(=O)O)C(=O)O)C(=O)N[C@@H](CCCCN)C(=O)N[C@H](C(=O)N[C@@H](CC(C)C)C(=O)N[C@@H](CC(C)C)C(=O)N[C@@H](CCC(=O)O)C(=O)N[C@@H](CCC(N)=O)C(=O)N[C@@H](CCC(=O)O)C(=O)N[C@@H](CCCCN)C(=O)N[C@@H](CCC(N)=O)C(=O)N[C@@H](CCCCN)C(=O)N[C@@H](CCCCN)C(=O)N[C@@H](CCC(N)=O)C(=O)N[C@@H](CCCNC(=N)N)C(=O)N[C@@H](CCC(=O)O)C(=O)N[C@@H](CCC(N)=O)C(=O)N[C@@H](C)C(=O)N[C@@H](CCC(=O)O)C(=O)N[C@H](C(=O)N[C@@H](CC(N)=O)C(=O)NC(C)(C)C(=O)N[C@@H](CCC(N)=O)C(=O)N[C@H](C(=O)N[C@@H](CC(C)C)C(=O)N[C@@H](C)C(=O)N[C@@H](CCC(N)=O)C(=O)N[C@H](C(N)=O)C(C)C)[C@@H](C)CC)[C@@H](C)O)[C@@H](C)CC)[C@@H](C)CC)C(C)C)C(C)C) [SEQ ID NO 185]

More lines, now with the values behind:

Binder | EC50 [nM] (cAMP) [1] | Emax (% I) (CRF1R receptor) | EC50 (CRF1R receptor)
Ac-IVLSLD[dV]PIKLK([γGlu-C18 diacid])KILLEQEKQK[Aib]QREQAETN[Api]QILAQV-NH2 (SMILES CC[C@H](C)[C@H](NC(C)=O)C(=O)N[C@H](C(=O)N[C@@H](CC(C)C)C(=O)N[C@@H](CO)C(=O)N[C@@H](CC(C)C)C(=O)N[C@@H](CC(=O)O)C(=O)N[C@@H](C(=O)N1CCC[C@H]1C(=O)N[C@H](C(=O)N[C@@H](CCCCN)C(=O)N[C@@H](CC(C)C)C(=O)N[C@@H](CCCCNC(=O)CC[C@H](NC(=O)CCCCCCCCCCCCCCCCC(=O)O)C(=O)O)C(=O)N[C@@H](CCCCN)C(=O)N[C@H](C(=O)N[C@@H](CC(C)C)C(=O)N[C@@H](CC(C)C)C(=O)N[C@@H](CCC(=O)O)C(=O)N[C@@H](CCC(N)=O)C(=O)N[C@@H](CCC(=O)O)C(=O)N[C@@H](CCCCN)C(=O)N[C@@H](CCC(N)=O)C(=O)N[C@@H](CCCCN)C(=O)NC(C)(C)C(=O)N[C@@H](CCC(N)=O)C(=O)N[C@@H](CCCNC(=N)N)C(=O)N[C@@H](CCC(=O)O)C(=O)N[C@@H](CCC(N)=O)C(=O)N[C@@H](C)C(=O)N[C@@H](CCC(=O)O)C(=O)N[C@H](C(=O)N[C@@H](CC(N)=O)C(=O)NC1(C(=O)N[C@@H](CCC(N)=O)C(=O)N[C@H](C(=O)N[C@@H](CC(C)C)C(=O)N[C@@H](C)C(=O)N[C@@H](CCC(N)=O)C(=O)N[C@H](C(N)=O)C(C)C)[C@@H](C)CC)CCNCC1)[C@@H](C)O)[C@@H](C)CC)[C@@H](C)CC)C(C)C)C(C)C) [SEQ ID NO 188] | 0.28 nM | 32% | –
Ac-IVLSLD[dV]PIKLK([γGlu-C18 diacid])KILLEQEKQKAQREQAETN[Api]QILAQV-NH2 (SMILES CC[C@H](C)[C@H](NC(C)=O)C(=O)N[C@H](C(=O)N[C@@H](CC(C)C)C(=O)N[C@@H](CO)C(=O)N[C@@H](CC(C)C)C(=O)N[C@@H](CC(=O)O)C(=O)N[C@@H](C(=O)N1CCC[C@H]1C(=O)N[C@H](C(=O)N[C@@H](CCCCN)C(=O)N[C@@H](CC(C)C)C(=O)N[C@@H](CCCCNC(=O)CC[C@H](NC(=O)CCCCCCCCCCCCCCCCC(=O)O)C(=O)O)C(=O)N[C@@H](CCCCN)C(=O)N[C@H](C(=O)N[C@@H](CC(C)C)C(=O)N[C@@H](CC(C)C)C(=O)N[C@@H](CCC(=O)O)C(=O)N[C@@H](CCC(N)=O)C(=O)N[C@@H](CCC(=O)O)C(=O)N[C@@H](CCCCN)C(=O)N[C@@H](CCC(N)=O)C(=O)N[C@@H](CCCCN)C(=O)N[C@@H](C)C(=O)N[C@@H](CCC(N)=O)C(=O)N[C@@H](CCCNC(=N)N)C(=O)N[C@@H](CCC(=O)O)C(=O)N[C@@H](CCC(N)=O)C(=O)N[C@@H](C)C(=O)N[C@@H](CCC(=O)O)C(=O)N[C@H](C(=O)N[C@@H](CC(N)=O)C(=O)NC1(C(=O)N[C@@H](CCC(N)=O)C(=O)N[C@H](C(=O)N[C@@H](CC(C)C)C(=O)N[C@@H](C)C(=O)N[C@@H](CCC(N)=O)C(=O)N[C@H](C(N)=O)C(C)C)[C@@H](C)CC)CCNCC1)[C@@H](C)O)[C@@H](C)CC)[C@@H](C)CC)C(C)C)C(C)C) [SEQ ID NO 187] | 0.26 nM | 37% | 195000 pM
